Tests used:
Format in all cases: functional, cell membranes
[1] = molecular target: Multidrug resistance protein 1a (Rattus norvegicus) (UniProt Q6PSM0); assay: (§1) TP_TRANSPORTER: uptake in rat canalicular membrane vesicle
[2] = test system: C=C[C@H]1CN2CC[C@H]1C[C@@H]2[C@@H](O)c1ccnc2ccc(OC)cc12; assay: as §1
[3] = test system: C=CC1C[N+]2(CCCCC)CCC1CC2C(O)c1ccnc2ccc(OC)cc12; assay: TP_TRANSPORTER: uptake in rat canalicular plasma membrane vesicles; conditions: Canalicular plasma membrane vesicle

Compound: CCC1C[N+]2(CCCC3(C)N=N3)C3CC45c6ccccc6N(C)C4C2CC1C3C5O (stereo not drawn)
- Activity [1]: substrate [+]

Compound: Multidrug resistance protein 1a (Rattus norvegicus), Q6PSM0
- Km [2]: 5 µM
- Km [3]: 0.4 µM

Source: ChEMBL document CHEMBL2074526, “ATP-dependent transport of amphiphilic cations across the hepatocyte canalicular membrane mediated by mdr1 P-glycoprotein” (FEBS Lett, 1994)
